Measured values as given in patent US20190100594A1 (INHIBRX, published 2019).
Where a chain is given by its changes, count along the chain named. Like-named read-outs stand apart in the source and are kept apart here.

Experiments:
cyno GITR-CHO [1] = target: T1, cyno GITR-CHO (cynomolgus monkey); assay: flow cytometry on cyno GITR-CHO cells
T1 construct: expressed on the surface of CHO cells, construct not described; also called cynomolgus GITR expressed on the surface of CHO cells

human GITR-CHO [2] = target: T2, human GITR-CHO (human, UniProt Q9Y5U5); assay: flow cytometry on human GITR-CHO cells
T2 construct: expressed on the surface of CHO cells, construct not described; also called human GITR expressed on the surface of CHO cells
T2 sequence (looked up): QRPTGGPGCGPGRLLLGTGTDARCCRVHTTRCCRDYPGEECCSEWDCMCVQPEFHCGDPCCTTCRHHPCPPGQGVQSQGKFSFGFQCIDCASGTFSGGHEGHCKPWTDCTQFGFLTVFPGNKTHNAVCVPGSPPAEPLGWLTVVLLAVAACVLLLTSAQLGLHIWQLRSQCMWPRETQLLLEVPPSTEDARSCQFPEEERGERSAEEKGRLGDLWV

cyno GITR-CHO [3] = target: T1, cyno GITR-CHO; assay: flow cytometry on cyno GITR-CHO cells; remark: listed apart in the source
human GITR-CHO [4] = target: T2, human GITR-CHO; assay: flow cytometry on human GITR-CHO cells; remark: listed apart in the source
[5] = target: T3, GITR expressed on CHO cells (Homo sapiens (Human), UniProt Q9Y5U5 26-241); assay: flow cytometry competition on GITR-expressing CHO cells; blocked ligand recombinant GITRL; readout GITRL bound, MFI-FL1
T3 construct: also called glucocorticoid-induced TNFR-related protein; TNFRSF18
T3 sequence: T2 sequence (looked up)
Description: Briefly, in these studies, a flow cytometry assay using GITR expressing CHO cells and recombinant GITRL was used to implement to assess blocking capacity. The GITR antibody, TRX-518, was used as a control for these studies.

[6] = target: T3, GITR expressed on CHO cells; assay: flow cytometry on GITR-expressing CHO cells, MFI-FL4
[7] = target: T3, GITR expressed on CHO cells; assay: as above; remark: listed apart in the source
human GITR-CHO [8] = target: T2, human GITR-CHO; assay: flow cytometry on human GITR-CHO cells; remark: listed apart in the source
cyno GITR-CHO [9] = target: T1, cyno GITR-CHO; assay: flow cytometry on cyno GITR-CHO cells; remark: listed apart in the source

B1: hzC06v3.3 (VHH)
VHH: EVQLLESGGGEVQPGGSLRLSCAASGSVFSIDAMGWYRQAPGKQRELVAVLSGISSAKYAESVKGRFTISRDSAKNAVYLQMDGLKPEDTAVYYCYADVSTGWGRDAHGYWGQGTLVTV
EC50 (read off the curve) (cyno GITR-CHO [1]): ~5 nM
EC50 (read off the curve) (human GITR-CHO [2]): ~4 nM

B2: hzC06v3.10 (VHH)
VHH: B1 VHH with E61D, S62A, D72A, K75P, A77T, D83S, G84S, K86R, P87A
EC50 (read off the curve) (cyno GITR-CHO [3]): ~2 nM
EC50 (read off the curve) (human GITR-CHO [4]): 1 to 2 nM

B3: hzC06v3.4 (VHH)
VHH: B1 VHH with S73N, A77T, D83S, G84S, K86R, P87A
EC50 (read off the curve) (cyno GITR-CHO [1]): ~5 nM
EC50 (read off the curve) (human GITR-CHO [2]): ~4 nM

B4: hzC06v3.7 (VHH)
VHH: B1 VHH with E61A, V63A, K64P, S73A, A74V, A77T, D83S, G84S, K86R, P87A
EC50 (read off the curve) (cyno GITR-CHO [3]): ~2 nM
EC50 (read off the curve) (human GITR-CHO [4]): 1 to 2 nM

B5: hzC06v3.9 (VHH)
VHH: B1 VHH with E61A, V63A, K64P, S73N, A77T, D83S, G84S, K86R, P87A
EC50 (read off the curve) (cyno GITR-CHO [3]): ~2 nM
EC50 (read off the curve) (human GITR-CHO [4]): 1 to 2 nM

B6: hzC06v3.12 (VHH)
VHH: B1 VHH with E61A, V63A, K64P, D72A, K75P, A77T, D83S, G84S, K86R, P87A
EC50 (read off the curve) (cyno GITR-CHO [3]): ~2 nM
EC50 (read off the curve) (human GITR-CHO [4]): 1 to 2 nM

B7: B12 (VHH, not shown: a dimerising Fc or GST)
VHH: QVQLQQSGGGLVQAGGSLRLSCAASGSIFSIDAMGWYRLAPGKQRELVAVIDGVSPNYADSVKGRFTISSDIAKNTVYLQMHSPKPEDTAVYYCNADVSTGWGRPADHYWGQGTQVTVS
IC50 (read off the curve) [5]: ~6 nM
EC50 (read off the curve) [6]: ~4 nM

B8: B2 (VHH, not shown: a dimerising Fc or GST; small tags and cut ends)
VHH: QVQLQESGGGLVQPGGSLRLSCAASGSVFSIDSMSWFRQAPGNERELVALITGGHTTTYGDSVKGRFTISRASAPNTVHLQMNSLQPEDTAVYYCNAAVSTGWGRNADDYWGQGTQVTVS
IC50 (read off the curve) [5]: ~1 nM
EC50 (read off the curve) [7]: ~0.7 nM

B9: E2 (VHH, not shown: a dimerising Fc or GST; small tags and cut ends)
VHH: B8 VHH with H55R, G60A, H79Y, Q86K, A98V
IC50 (read off the curve) [5]: ~2 nM
EC50 (read off the curve) [7]: ~1 nM

B10: B3 (VHH, not shown: a dimerising Fc or GST)
VHH: QVQLVQSGGGLVQPGGSLRLICAASGSVFSIDSMSWFRQRPGNERELVALITGGRTTTYSDSVKGRFTISRASALNTVHLQMNSLKPEDTAVYYCNAALSTGWGRDASAYWGQGTQVTVS
IC50 (read off the curve) [5]: ~3 nM
EC50 (read off the curve) [7]: ~2 nM

B11: hzCC04v5.1 (VHH)
VHH: EVQLLESGGGEVQPGGSLRLSCAASGFTFSTHGMDWFRQAPGKDLEWVSAIQSGGSWTSYASSVKGRFTISRDNAKNTLYLEMNNLKPEDTAVYWCQNRVTRGQGTLVTV
notes: sheet prints hzCC04, text hzC04; also called hzC04v5.1
EC50 (read off the curve) (human GITR-CHO [8]): ~4 nM
EC50 (read off the curve) (cyno GITR-CHO [9]): ~2 nM

B12: hzCC04v5.3 (VHH)
VHH: B11 VHH with N84S, N85S, K87R, P88A
notes: sheet prints hzCC04, text hzC04; also called hzC04v5.3
EC50 (read off the curve) (human GITR-CHO [8]): ~5 nM
EC50 (read off the curve) (cyno GITR-CHO [9]): ~2 nM

B13: hzCC04v5.2 (VHH)
VHH: B11 VHH with E82Q, K87R, P88A
notes: sheet prints hzCC04, text hzC04; also called hzC04v5.2
EC50 (read off the curve) (human GITR-CHO [8]): ~4 nM
EC50 (read off the curve) (cyno GITR-CHO [9]): ~1 nM

B14: hzCC04v5.4 (VHH)
VHH: B11 VHH with E82Q, N84S, N85S, K87R
notes: sheet prints hzCC04, text hzC04; also called hzC04v5.4
EC50 (read off the curve) (human GITR-CHO [8]): ~4 nM
EC50 (read off the curve) (cyno GITR-CHO [9]): ~1 nM

B15: F2 (VHH, not shown: a dimerising Fc or GST; small tags and cut ends)
VHH: QLVQSGGGLVQPGESLRLSCAASGSVFSIDSVSWFRQGPGNERELVALITGGRTTTYADSVKGRFTISRANAPNTVHLRMNSLKPEDTAVYYCNAAVSTGWGRNADDYWGQGTQVTVS
IC50 (read off the curve) [5]: ~1 nM
EC50 (read off the curve) [7]: ~1 nM
